Values of other authors in PMC8353491.

Biological target: Ubc9 (Homo sapiens) (UniProt P63279)
UniProt P63279, sequence (P63279 2-158): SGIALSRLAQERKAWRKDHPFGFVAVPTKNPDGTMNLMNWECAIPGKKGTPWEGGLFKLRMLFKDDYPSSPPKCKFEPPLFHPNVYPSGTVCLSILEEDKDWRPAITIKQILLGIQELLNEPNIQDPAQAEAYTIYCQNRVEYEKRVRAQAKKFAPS

For SUMO1 (from UniProt P63165), which Kd is on record?
Its Kd is 82 nM.
